Results as given in patent US20130116185A1, “PHOSPHATIDYLINOSITOL 3-KINASES ACTIVITY REGULATOR INCLUDING THE FIFTH ZINC FINGER DOMAIN OF FOG2” (SNU R&DB FOUNDATION, priority 2010, published 2013).
“Also recorded” adds a separate entry of the source.

What was measured:
p85α = target: T1, p85α (Homo sapiens, UniProt P27986); assay: Interaction of FOG2 zinc finger domain with p85α (α-Flag immunoprecipitation, Western blot); type: binding; conditions: Hep3B cells, 2 days after transfection, FIG. 1B
T1 construct: subject to the Western blot analysis using p85α (sc-1637, Santa Cruz); endogenous in cells; host or cells: Hep3B
Excerpt: To reveal the region of FOG2 interacting with p85α as a subunit of PI3K, we numbered eight (8) zinc finger domains of FOG2. Then, mutated FOG2 with altered zinc finger domain (FOG-ZF-5-m and FOG-ZF-6-m) was manufactured by mutating two domains (known to interact with p85α) positioned at 413-789th amino acid residues of FOG2.
Hep3B cells were transfected with pCK-flag (control), FOG2-wt (wild type) and FOG2 mutants having modified the zinc finger domain (FOG2-ZF-5-m and FOG2-ZF-6-m). On 2 days after transfection, the lysates were obtained using the lysis buffer (20 mM Hepes (pH7.4), 100 mM NaCl, 20 mM KAc, 10 mM MgCl2, […], 1 mM Na3VO4, 5 mM NaF, 1% NPO4). The cell lysates were immunoprecipitated with the α-Flag (Sigma, A2220) and subject to the Western blot analysis using p85α (sc-1637, Santa Cruz) and α-Flag antibody (Sigma, F1804).

MDA MB 231 cells [1] = assay: Cell migration, modified Boyden chamber method; type: cell-based; conditions: transfected 24 hr, 18 hr migration, FIG. 3A
Experimental: MDA MB 231 cells were transfected with pCK-flag (control), FOG2-wt (wild type) and FOG2 mutants having modified zinc finger domain (FOG2-ZF-5-m and FOG2-ZF-6-m). The cell migration was then analyzed using the modified Boyden chamber method (Albini A et al., Cancer Res 1987 47:3239-45). Following the transfection for 24 hr, MDA MB 231 cells (1×10^5) were suspended in a serum-free medium and seeded in triplicate in the upper part of BD chamber ([…] pore size). The lower part was filled with the serum-free medium. Following the incubation at 37° C. for 18 hr, non-migrating cells positioned at the upper surface of filters were cleaned with a cotton swab. The migrating cells passing through the lower surface of filters were fixed with 70% ethanol and treated with the Giemsa staining solution for 50 min. Then, the cells were rinsed with water and observed under a microscope. The cell migration rate was determined by counting the number of cells present in randomly-selected six sections and the migration range was expressed as the average number of cells per a microscopic field.
MDA MB 231 cells were incubated with 4 μM Mock (control, DMSO), 4 μM ZF-5-wt-24, 4 μM ZF-5-m-24, 4 μM ZF-5-wt-20 or 4 μM ZF-3-wt-21. After treatment, the cell migration was analyzed using the modified Boyden chamber method (Albini A et al., Cancer Res 1987 47:3239-45). After 2 days of treatment, MDA MB 231 cells (1×10^5) were suspended in the serum free medium and seeded in triplicate in the upper part of BD chamber ([…] pore size). The lower part was filled with the serum free medium. Following the incubation at 37° C. for 18 hr, non-migrating cells positioned at the upper surface of filters were cleaned with the cotton swab. The migrating cells passing through the lower side surface of filters were fixed with 70% ethanol and stained using the Giemsa stain method. The cell migration rate was determined by counting the number of cells present in randomly-selected six sections and the migration range was expressed as the average number of cells per a microscopic field.

Akt = Akt phosphorylation by Western blot in transfected Hep3B cells after IGF-1 stimulation; type: cell-based; conditions: FIG. 1D
Experimental: Hep3B cells were transfected with FOG2 mutants having modified zinc finger domain to measure the effect on the Akt signaling by FOG2-ZF-5m. The Akt activity was measured by analyzed Akt phosphorylation.
Hep3B cells were transfected with pCK-flag (control), FOG2-wt (wild type) and FOG2 mutants having modified zinc finger domain (FOG2-ZF-5-m and FOG2-ZF-6-m) and stimulated with IGF-1. The expression of Akt (Cell signaling Technology, USA), pAkt (Cell signaling Technology, USA) and GAPDH(Santa cruz, USA) were measured by Western blot analysis.

MDA MB 231 cells [2] = assay: Cell proliferation MTT assay; type: cell-based; conditions: transfected with 100 ng DNA, 3 days post-transfection, FIG. 6A
Experimental: Because the PI3K activation is critical in cell growth, the cell proliferation was analyzed to investigate the inhibitory effect of the FOG2 zinc finger domain using the MTT assay.
MDA MB 231 cells were seeded in a 96-well plate, and transfected with 100 ng DNA of pCKflag, FOG2-wt, FOG2-ZF-5-m or FOG2-ZF-6-m using Lipofectamine 2000. On 3 days post-transfection, the MTT assay was performed.
MDA MB 231 cells (2×10^3 cells) were seeded in a 96-well plate and treated with 4 μM each peptide for 3 days. After the treatment, 50 μl of MTT solution (2 mg/ml) was added to each well, incubated at 37° C. for 1 hr. Then, 150 μl of DMSO was added to each well and the absorbance value of each well was measured at 590 nm using a microplate reader.

PI3K = PI3K (Homo sapiens, UniProt P27986); assay: PI3K activity in Hep3B cells transfected with FOG2 constructs (p85α immunoprecipitation, 32P-ATP/PIP2 kinase assay); type: cell-based; design: The cell lysates were immunoprecipitated with p85α (sc-1637, Santa Cruz) and Protein G-Sepharose beads; endogenous in cells; host or cells: Hep3B
Experimental: To investigate the inhibitory effect to PI3K activity by FOG2 zinc finger domain, PI3K activity was analyzed using FOG2 mutants having modified zinc finger domain. Specially, it is known that IGF signaling pathway plays an important role in cancer and the increased IGF-1 level enhances the risk of various cancers in many researches.
Accordingly, the PI3K activity was increased by incubating Hep3B cells with IGF-1 and then measured when the cells were incubated with peptides having mutated FOG2 zinc finger domain.
After Hep3B cells incubation, 100 ng/ml IGF-1 (Insulin like growth factor-1) was added to the cells and incubated for 30 min.
Hep3B cells were transfected with pCK-flag (control), FOG2-wt (wild type) and FOG2 mutants having modified zinc finger domain (FOG2-ZF-5-m and FOG2-ZF-6-m). Two days later, the lysates were obtained using a lysis buffer (20 mM Hepes (pH7.4), 100 mM NaCl, 20 mM KAc, 10 mM MgCl2, 10 mM ZnCl2, 1 mM Na3VO4, 1% NPO4). The cell lysates were immunoprecipitated with p85α (sc-1637, Santa Cruz) and Protein G-Sepharose beads using the same method above. After binding to beads, the lysates were washed 2 times with the lysis buffer and one time with the wash buffer (0.1 M Tris-HCl (pH 7.4), 5 mM LiCl, and 0.1 mM Na3VO4).
For measurement of PI3K activity, 10 μl of sonicated PIP2 (1 μg/μl, Calbiochem), 10 μl of 100 mM MgCl2 and 1 μl of [-^32P]ATP (500 μCi/ml) were added to the kinase buffer (10 mM Tris-HCl (pH 7.4), 150 mM NaCl, 1 mM Na3VO4, 10 mM ZnCl2) and incubated at 37° C. for 30 min. After incubation, 20 μl of 6 N HCl was added to stop the reaction and PIP2 was extracted by treatment with 200 μl of methanol:chloroform (1:1) solution. The amount of radioactively labeled PIP2 in the extract was measured using a scintillator counter.

Sequence of PI3K (P27986 whole entry, the tested form may be a part): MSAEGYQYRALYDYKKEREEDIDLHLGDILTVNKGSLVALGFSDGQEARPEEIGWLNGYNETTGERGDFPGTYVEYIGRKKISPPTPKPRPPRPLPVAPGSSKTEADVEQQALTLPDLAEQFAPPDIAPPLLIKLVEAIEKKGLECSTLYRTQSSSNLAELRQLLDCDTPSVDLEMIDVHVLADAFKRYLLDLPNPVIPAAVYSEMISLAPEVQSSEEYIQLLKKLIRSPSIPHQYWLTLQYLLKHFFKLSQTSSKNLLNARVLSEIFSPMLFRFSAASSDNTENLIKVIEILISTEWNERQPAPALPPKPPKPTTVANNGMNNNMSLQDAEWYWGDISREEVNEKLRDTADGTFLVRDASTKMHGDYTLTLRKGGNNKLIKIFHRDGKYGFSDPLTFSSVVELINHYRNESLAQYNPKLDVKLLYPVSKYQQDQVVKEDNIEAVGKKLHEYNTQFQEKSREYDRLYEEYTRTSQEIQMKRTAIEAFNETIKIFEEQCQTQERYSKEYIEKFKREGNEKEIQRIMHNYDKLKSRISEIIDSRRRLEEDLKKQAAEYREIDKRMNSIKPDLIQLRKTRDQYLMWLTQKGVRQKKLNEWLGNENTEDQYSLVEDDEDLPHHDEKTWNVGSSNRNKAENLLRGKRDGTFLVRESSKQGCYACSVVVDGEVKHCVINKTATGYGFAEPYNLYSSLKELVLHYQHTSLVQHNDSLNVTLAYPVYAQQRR
T1 sequence (P27986 whole entry, the tested form may be a part): as above

B1: FOG2-ZF-5-m: Mutated FOG2 with altered the fifth zinc finger domain (two histidine residues substituted with alanine) (protein)
chain: MSRRKQSKPRQIKRPLEDAIEDEEEECPSEETDIISKGDFPLEESFSTEFGPENLSCEEVEYFCNKGDDEGIQETAESDGDTQSEKPGQPGVETDDWDGPGELEVFQKDGERKIQSRQQLPVGTTWGPFPGKMDLNNNSLKTKAQVPMVLTAGPKWLLDVTWQGVEDNKNNCIVYSKGGQLWCTTTKAISEGEELIAFVVDFDSRLQAASQMTLTEGMYPARLLDSIQLLPQQAAMASILPTAIVNKDIFPCKSCGIWYRSERNLQAHLMYYCSGRQREAAPVSEENEDSAHQISSLCPFPQCTKSFSNARALEMHLNSHSGVKMEEFLPPGASLKCTVCSYTADSVINFHQHLFSHLTQAAFRCNHCHFGFQTQRELLQHQELHVPSGKLPRESDMEHSPSATEDSLQPATDLLTRSELPQSQKAMQTKDASSDTELDKCEKKTQLFLTNQRPEIQPTTNKQSFSYTKIKSEPSSPRLASSPVQPNIGPSFPVGPFLSQFSFPQDITMVPQASEILAKMSELVHRRLRHGSSSYPPVIYSPLMPKGATCFECNITFNNLDNYLVAKKAYCSSRWQQMAKSPEFPSVSEKMPEALSPNTGQTSINLLNPAAHSADPENPLLQTSCINSSTVLDLIGPNGKGHDKDFSTQTKKLSTSSNNDDKINGKPVDVKNPSVPLVDGESDPNKTTCEACNITFSRHETYMVHKQYYCATRHDPPLKRSASNKVPAMQRTMRTRKRRKMYEMCLPEQEQRPPLVQQRFLDVANLNNPCTSTQEPTEGLGECYHPRCDIFPGIVSKHLETSLTINKCVPVSKCDTTHSSVSCLEMDVPIDLSKKCLSQSERTTTSPKRLLDYHECTVCKISFNKVENYLAHKQNFCPVTAHQRNDLGQLDGKVFPNPESERNSPDVSYERSIIKCEKNGNLKQPSPNGNLFSSHLATLQGLKVFSEAAQLIATKEENRHLFLPQCLYPGAIKKAKGADQLSPYYGIKPSDYISGSLVIHNTDIEQSRNAENESPKGQASSNGCAALKKDSLPLLPKNRGMVIVNGGLKQDERPAANPQQENISQNPQHEDDHKSPSWISENPLAANENVSPGIPSAEEQLSSIAKGVNGSSQAPTSGKYCRLCDIQFNNLSNFITHKKFYCSSHAAEHVK
modifications: left off: small tags and cut ends
interaction with p85α (p85α): did not
reduction of cell migration (MDA MB 231 cells [1]): does not; also recorded: not observed
Akt phosphorylation (Akt): increased
effect on cell proliferation (MDA MB 231 cells [2]): did not influence the cell proliferation
PI3K activation by IGF-1 stimulation (PI3K; 100 ng/ml IGF-1 30 min, FIG. 1C): did not inhibit PI3K activation
PI3K activity (PI3K; without IGF-1 stimulation, FIG. 5A): did not inhibit PI3K activity
